This assay deals with T1, CK2α-AT, autotransporter fusion protein with the human protein kinase CK2 α-subunit as passenger domain (human, UniProt P68400 2-391).
T1 sequence (looked up): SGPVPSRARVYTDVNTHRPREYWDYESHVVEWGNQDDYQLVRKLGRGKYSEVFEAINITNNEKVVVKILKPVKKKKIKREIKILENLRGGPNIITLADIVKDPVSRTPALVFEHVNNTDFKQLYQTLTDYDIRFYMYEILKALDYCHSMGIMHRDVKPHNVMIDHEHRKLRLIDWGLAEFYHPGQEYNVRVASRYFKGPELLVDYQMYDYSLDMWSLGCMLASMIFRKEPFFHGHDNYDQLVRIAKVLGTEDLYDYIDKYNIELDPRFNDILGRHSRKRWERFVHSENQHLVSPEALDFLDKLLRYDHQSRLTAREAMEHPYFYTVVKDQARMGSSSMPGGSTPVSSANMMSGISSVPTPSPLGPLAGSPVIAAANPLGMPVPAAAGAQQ
The assay can be described thus: cell-based or functional assay.

B1: CK2β-AT, autotransporter fusion protein with the human protein kinase CK2 β-subunit as passenger domain (natural protein)
chain: not shown
On to B1, for which the “radiometric whole-cell kinase activity normalised to the expression level of CK2α-AT, cells co-displaying both subunits against cells displaying CK2α alone” value was more than 5 fold.

Values taken from PMC4451881, “Functional display of heterotetrameric human protein kinase CK2 on Escherichia coli: a novel tool for drug discovery” (Microbial Cell Factories, 2015).
